Publication PMC2138355

Target: fourth component of human complement (C'4) (human)
Test: sucrose density gradient ultracentrifugation

- s rate of C'2 in mixtures with C'4 (pH 5): 7.7 S
- s rate of C'2 in mixtures with C'4 (pH 8): 13.5 S
Substance: C'2 oxidized by treatment with a critical concentration of iodine (oxyC'2) (natural protein)
